Where “and” joins values, the source holds several entries; their conditions need not be identical. Equal values may be shown once. Read-outs that look alike come from different tables or passages of the source.
How the values were obtained:
[1] = target: Pisum sativum (green pea) porphobilinogen synthase (PsPBGS) (Pisum sativum (green pea)); test: native gel or EMSA
[2] = target: human porphobilinogen synthase, wild type (WT HsPBGS) (human) (UniProt P13716)
[3] = target: human porphobilinogen synthase, wild type (WT HsPBGS) (human) (UniProt P13716); remark: listed apart in the source
[4] = target: human porphobilinogen synthase, wild type (WT HsPBGS) (human) (UniProt P13716); remark: listed apart in the source

Row | Substance | stoichiometry N [1] | percent Phe12 (WT) chains in the hetero-octamers (Pool II) [2] | stoichiometry N [3] | stoichiometry N [4]
1 | Pisum sativum (green pea) porphobilinogen synthase (PsPBGS) (enzyme) | 8 and 6 | – | – | –
2 | human porphobilinogen synthase, naturally occurring variant F12L (from UniProt P13716 1-330) (enzyme) | – | 70% | 6 and 8 | 6 and 8

— article PMC3256758
